Laboratory results as given in US20240209361A1 (Johns Hopkins, published 2024).
No end group written: not given here. (C16)2‑Glu‑C2 = not defined here

What was measured:
[1] = molecular target: T1, integrin α5β1 on patient-derived glioblastoma stem-like cells (GBM-CCC-001, GBM-CCC-002, GBM-CCC-003) (human (patient-derived cells), UniProt P08648 42-1049; P05556 21-798); assay: flow cytometry blocking experiment on GBM-CCC-001 cells; 1 mg/mL free PR_b peptide for 1 hour, then PR_b liposomes for 1 hour at 37° C.
T1 construct: whole, on cells; Endogenous heterodimer on cells; The cells were not engineered, so other surface proteins were also present; also called α5β1 integrin; integrin α5β1 polypeptide
T1 sequence (P08648 42-1049, chain 1 of 2): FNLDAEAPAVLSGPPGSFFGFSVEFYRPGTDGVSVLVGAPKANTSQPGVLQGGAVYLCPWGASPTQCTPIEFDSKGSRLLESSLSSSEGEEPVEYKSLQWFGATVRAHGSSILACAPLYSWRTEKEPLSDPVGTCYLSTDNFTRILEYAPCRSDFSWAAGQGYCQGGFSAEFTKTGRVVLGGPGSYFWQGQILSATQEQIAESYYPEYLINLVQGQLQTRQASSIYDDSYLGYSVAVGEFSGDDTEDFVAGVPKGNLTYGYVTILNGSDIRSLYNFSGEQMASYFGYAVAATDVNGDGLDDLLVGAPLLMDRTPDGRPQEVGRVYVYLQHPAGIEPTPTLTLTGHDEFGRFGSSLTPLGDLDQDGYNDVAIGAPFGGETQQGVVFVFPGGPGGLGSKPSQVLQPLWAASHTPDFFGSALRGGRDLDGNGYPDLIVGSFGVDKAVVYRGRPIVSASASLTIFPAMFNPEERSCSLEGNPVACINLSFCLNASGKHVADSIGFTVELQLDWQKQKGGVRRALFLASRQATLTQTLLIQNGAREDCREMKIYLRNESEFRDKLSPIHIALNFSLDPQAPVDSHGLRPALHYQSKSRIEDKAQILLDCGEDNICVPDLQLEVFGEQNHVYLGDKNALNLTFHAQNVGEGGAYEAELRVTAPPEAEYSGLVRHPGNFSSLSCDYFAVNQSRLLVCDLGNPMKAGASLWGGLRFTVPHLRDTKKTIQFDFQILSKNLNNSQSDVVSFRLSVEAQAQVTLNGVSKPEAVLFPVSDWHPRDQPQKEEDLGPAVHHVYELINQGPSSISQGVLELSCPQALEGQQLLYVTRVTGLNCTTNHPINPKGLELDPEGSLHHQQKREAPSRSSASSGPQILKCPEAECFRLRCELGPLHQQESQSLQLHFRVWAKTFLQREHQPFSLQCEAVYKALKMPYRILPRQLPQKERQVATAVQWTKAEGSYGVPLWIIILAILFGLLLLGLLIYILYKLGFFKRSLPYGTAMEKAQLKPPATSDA
T1 sequence (P05556 21-798, chain 2 of 2): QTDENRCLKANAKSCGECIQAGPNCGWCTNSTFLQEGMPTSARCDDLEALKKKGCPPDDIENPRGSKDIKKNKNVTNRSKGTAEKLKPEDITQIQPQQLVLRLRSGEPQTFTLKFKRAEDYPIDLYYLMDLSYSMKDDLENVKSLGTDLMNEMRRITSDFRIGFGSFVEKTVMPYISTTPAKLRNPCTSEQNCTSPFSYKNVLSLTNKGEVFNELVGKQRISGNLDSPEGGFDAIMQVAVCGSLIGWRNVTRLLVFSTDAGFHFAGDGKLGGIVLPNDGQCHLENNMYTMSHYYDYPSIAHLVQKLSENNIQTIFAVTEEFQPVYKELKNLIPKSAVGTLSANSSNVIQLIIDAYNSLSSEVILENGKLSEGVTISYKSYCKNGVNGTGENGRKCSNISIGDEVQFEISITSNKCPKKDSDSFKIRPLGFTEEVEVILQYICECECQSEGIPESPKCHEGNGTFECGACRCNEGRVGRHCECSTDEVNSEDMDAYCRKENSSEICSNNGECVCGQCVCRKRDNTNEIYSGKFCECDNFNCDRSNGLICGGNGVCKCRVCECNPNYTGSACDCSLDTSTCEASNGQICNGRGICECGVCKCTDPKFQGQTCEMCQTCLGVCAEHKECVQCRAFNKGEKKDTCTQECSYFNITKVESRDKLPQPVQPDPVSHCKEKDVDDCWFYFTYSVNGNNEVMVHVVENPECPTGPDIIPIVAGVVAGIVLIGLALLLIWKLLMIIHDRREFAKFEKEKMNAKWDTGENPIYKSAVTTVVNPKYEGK
Protocol: (§1) GSC neurospheres (GBM-CCC-001, GBM-CCC-002 and GBM-CCC-003) were collected into 15 mL Falcon tubes, pelleted down, and dissociated into single cells. About 200,000 cells were transferred into Eppendorf tubes in neurosphere culture media and treated with 2 mM calcein loaded PR_b liposomes or non-targeted liposomes at a lipid concentration of 150 μM for 48 hours at 37° C. on a shaker. After the incubation period, cells were pelleted down and washed twice with PBS. Flow cytometric analysis was carried out immediately using BD FACSCanto. Non-treated cells that received only media served as a control. Cell autofluorescence was subtracted from all measurements. For the blocking experiment, the same procedure was followed, except cells were preincubated with 1 mg/mL free PR_b peptide in media for 1 hour at 37° C. prior to addition of the PR_b liposomes and incubation for an additional 1 hour at 37° C.

[2] = molecular target: T1, integrin α5β1 on patient-derived …; assay: flow cytometry of calcein-loaded liposomes (150 µM lipid) on GBM-CCC-001, GBM-CCC-002 and GBM-CCC-003 cells, 48 hours at 37° C.
Protocol: as §1

binding result [1]	binding result [2]	Binder
binds	–	KSSPHSRNSGSGSGSGSGRGDSP [free PR_b peptide]
–	binds	{(C16)2‑Glu‑C2}-KSSPHSRNSGSGSGSGSGRGDSP (reading uncertain; also: printed as (C16)2-Glu-C2-KSSPHSRNSGSGSGSGSGRGDSP, Synthetic fibronectin-mimetic peptide)
